Assays:
[1] = biological target: T1, CD3 expressed on cell-surface of primary human T cells (human, UniProt P07766 23-207; P04234 22-171); assay: flow cytometry on PBMCs, % anti-huIgG+ CD4+ cells, donor hu 340
T1 construct: also called cell-surface CD3; human CD3
Protocol: (§1) Briefly, PBMCs from healthy human donors and healthy rhesus or cynomolgus monkey donors were incubated with different concentrations of HIV×CD3 bispecific molecules for 1 hour at RT. […] Cells were then washed, fixed/permeabilized, and analyzed on BD LSRFortessa. The percentage of α-huIgG-APC-positive CD4+ and CD8+ T cells and the mFI of the α-huIgG-APC of CD4+ and CD8+ cells were collected, and data analyzed using GraphPad Prism.

[2] = biological target: T1, CD3 expressed on cell-surface of …; assay: flow cytometry on PBMCs, % anti-huIgG+ CD8+ cells, donor hu 151
Protocol: as §1

[3] = biological target: T1, CD3 expressed on cell-surface of …; assay: flow cytometry on human PBMCs, CD8+ cells, donor 3761
Protocol: (§2) Briefly, peripheral blood mononuclear cells (PBMCs) were incubated with different concentrations of HIV×CD3 bispecific molecules for 1 hour at RT. […] Cells were then washed, fixed/permeabilized, and analyzed using BD LSRFortessa according to the manufacturer's protocol. The percentage of α-huIgG-APC-positive CD4+ and CD8+ T cells and the mean fluorescence intensity of the α-huIgG-APC of CD4+ and CD8+ cells were collected, and data analyzed using GraphPad Prism.
(§3) Binding experiments were performed using PBMCs from two healthy human donors.

[4] = biological target: CD3 on rhesus monkey T cells in PBMCs (rhesus monkey); assay: flow cytometry on PBMCs, % anti-huIgG+ CD4+ cells, donor rh 3563
[5] = biological target: T1, CD3 expressed on cell-surface of …; assay: flow cytometry on PBMCs, % anti-huIgG+ CD4+ cells, donor hu 151
[6] = biological target: T1, CD3 expressed on cell-surface of …; assay: flow cytometry on human PBMCs, CD8+ cells, donor 4574
Protocol: as §2, §3

[7] = biological target: T1, CD3 expressed on cell-surface of …; assay: flow cytometry on PBMCs, % anti-huIgG+ CD8+ cells, donor hu 340
Protocol: as §1

[8] = biological target: T1, CD3 expressed on cell-surface of …; assay: flow cytometry on human PBMCs, CD4+ cells, donor 3761
Protocol: as §2, §3

[9] = biological target: T1, CD3 expressed on cell-surface of …; assay: cell-based or functional assay
[10] = biological target: CD3 on rhesus monkey T cells in PBMCs (rhesus monkey); assay: flow cytometry on PBMCs, % anti-huIgG+ CD8+ cells, donor rh 3483
[11] = biological target: CD3 on rhesus monkey T cells in PBMCs (rhesus monkey); assay: flow cytometry on PBMCs, % anti-huIgG+ CD8+ cells, donor rh 3563
[12] = biological target: T1, CD3 expressed on cell-surface of …; assay: flow cytometry on human PBMCs, CD4+ cells, donor 4574
Protocol: as §2, §3

[13] = biological target: CD3 on rhesus monkey T cells in PBMCs (rhesus monkey); assay: flow cytometry on PBMCs, % anti-huIgG+ CD4+ cells, donor rh 3483
[14] = biological target: T1, CD3 expressed on cell-surface of …; assay: flow cytometry competition vs murine SP34-AF488 on human T cells, average
Protocol: (§4) Binding of humanized SP34 Fab variants to CD3 expressed on cell-surface of primary human T cells was evaluated in a flow cytometry-based competition assay.

[15] = biological target: T2, biotinylated CD3 epsilon: delta heterodimer protein (Amsbio AMS.CDD-H52WO) (Homo sapiens (Human), UniProt P07766 23-126; P04234 22-105); assay: BLI (Octet), corresponding huSP34 Fab variant
Protocol: (§5) The CD3 binding kinetics of the purified huSP34 Fabs were determined using OctetRed384 (Pall ForteBio, CA) biolayer interferometry (BLI). […] Streptavidin (SA) coated biosensors tips (Pall ForteBio, CA) were used to capture biotinylated CD3 epsilon: delta heterodimer and typical immobilization levels captured on the SA sensors were 1 nm which approximately translates to 300 ng/ml of captured protein. For kinetic measurements biosensors were first pre-wetted with assay buffer for 10 minutes to remove protective sucrose coating followed by the recommended regeneration conditions for standardization of the biosensor surface for the experiment. In order to load the biosensors with antigen, 300 ng/ml of biotinylated CD3 epsilon: delta heterodimer protein (Amsbio AMS.CDD-H52WO) was immobilized on the SA sensor for 900 seconds. The CD3 loaded biosensors were then blocked with 20 ug/ml biocytin (sigma) for 200 seconds and then dipped into assay buffer containing wells for 200 seconds to remove any non-specific protein or unbound CD3 heterodimer.
(§6) CD3 loaded and biocytin blocked biosensors were then transferred into fresh assay buffer for 200 seconds to collect a baseline read. Kinetic measurements for anti-CD3 Fab and bispecific antibody binding were performed by dipping the CD3-coated biosensors into wells containing multiple concentrations of Fab or Ab (0-300 nM) for 100 seconds followed by a 300 second dissociation time by transferring the biosensors into assay buffer containing wells. The CD3 loaded sensors were then regenerated for the next kinetic measurement. Biosensors were generated by removing bound Fabs or Ab from immobilized CD3 on SA biosensors. Regeneration conditions used consisted of 3 cycles of 5 seconds of dipping the biosensors in Regeneration Buffer (10 mM Glycine HCl pH 1.5) followed by Assay Buffer (10 mM sodium phosphate pH 7.4, 140 mM Sodium Chloride, 0.005% Tween20 with 0.2% BSA).

[16] = biological target: T2, biotinylated CD3 epsilon: delta …; assay: BLI (Octet), huSP34 variant in Fab format
Protocol: as §5, §6

[17] = biological target: T1, CD3 expressed on cell-surface of …; assay: flow cytometry competition vs murine SP34-AF488 on human T cells, n = 2
Protocol: as §4

[18] = biological target: T1, CD3 expressed on cell-surface of …; assay: flow cytometry competition vs murine SP34-AF488 on human T cells, n = 1
Protocol: as §4

[19] = biological target: T1, CD3 expressed on cell-surface of …; assay: flow cytometry competition vs murine SP34-AF488 on human T cells, n = 2; remark: listed apart in the source
Protocol: as §4
(§7) A second round of huSP34 Fab variants were characterized using the same flow cytometry-based competition assay as described above.

[20] = biological target: T1, CD3 expressed on cell-surface of …; assay: flow cytometry competition vs murine SP34-AF488 on human T cells, average; remark: listed apart in the source
Protocol: as §4, §7

[21] = biological target: T1, CD3 expressed on cell-surface of …; assay: flow cytometry competition vs murine SP34-AF488 on human T cells, n = 1; remark: listed apart in the source
Protocol: as §4, §7

[22] = biological target: T2, biotinylated CD3 epsilon: delta …; assay: BLI (Octet), corresponding huSP34 Fab variant; remark: listed apart in the source
Protocol: as §5
CD3 loaded and biocytin blocked biosensors were then transferred into fresh assay buffer for 200 seconds to collect a baseline read. […]

CD3 on rhesus monkey T cells in PBMCs (rhesus monkey), sequence (P16003 26-458): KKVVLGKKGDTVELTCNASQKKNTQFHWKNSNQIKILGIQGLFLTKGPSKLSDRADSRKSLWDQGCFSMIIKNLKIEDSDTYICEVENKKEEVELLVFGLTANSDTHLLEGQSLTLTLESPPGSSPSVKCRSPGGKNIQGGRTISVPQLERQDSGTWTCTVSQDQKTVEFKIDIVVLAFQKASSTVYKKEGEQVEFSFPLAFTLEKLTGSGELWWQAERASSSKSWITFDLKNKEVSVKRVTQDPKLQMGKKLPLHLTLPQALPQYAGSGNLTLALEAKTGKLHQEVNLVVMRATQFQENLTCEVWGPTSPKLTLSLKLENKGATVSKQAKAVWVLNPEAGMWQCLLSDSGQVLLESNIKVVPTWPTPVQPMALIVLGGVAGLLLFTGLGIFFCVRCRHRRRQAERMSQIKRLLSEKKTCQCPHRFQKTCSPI

B1: hPGT121.66 AAS + W/huSP34.1.3 scFv AAS + SAV + RF (bispecific antibody, human IgG1, lambda, L234A L235A)
chain: not shown
heavy: QMQLQESGPGLVKPSETLSLTCSVSGASISDSYWSWIRRSPGKGLEWIGYVHKSGDTNYNPSLKSRVHLSLDTSKNQVSLSLTGVTAADSGKYYCARTLHGRRIYGIVAFNEWFTYFYMDVWGTGTQVTVSSASTKGPSVFPLAPSSKSTSGGTAALGCLVKDYFPEPVTVSWNSGALTSGVHTFPAVLQSSGLYSLSSVVTVPSSSLGTQTYICNVNHKPSNTKVDKKVEPKSCDKTHTCPPCPAPEAAGGPSVFLFPPKPKDTLMISRTPEVTCVVVDVSHEDPEVKFNWYVDGVEVHNAKTKPREEQYNSTYRVVSVLTVLHQDWLNGKEYKCKVSNKALPASIEKTISKAKGQPREPQVYTLPPSREEMTKNQVSLWCLVKGFYPSDIAVEWESNGQPENNYKTTPPVLDSDGSFFLYSKLTVDKSRWQQGNVFSCSVMHEALHNHYTQKSLSLSPGK
light: not shown
[1]
  EC50: 0.42 µg/mL
[2]
  EC50: 0.44 µg/mL
[3]
  EC50: 0.36 µg/mL
[4]
  EC50: 0.4 µg/mL
[5]
  EC50: 0.41 µg/mL
[6]
  EC50: 0.35 µg/mL
[7]
  EC50: 0.68 µg/mL
[8]
  EC50: 0.32 µg/mL
[9]
  killing EC50, primary HIV-infected CD4+ cells, PBMC effector cells, isolate 657: 1.61 µg/mL
  killing EC50, primary HIV-infected CD4+ cells, PBMC effector cells, isolate 7552: 0.107 µg/mL
[10]
  EC50: 0.55 µg/mL
[11]
  EC50: 1.02 µg/mL
[12]
  EC50: 0.33 µg/mL
[13]
  EC50: 0.33 µg/mL

B2: hPGT121.66 AAS + W/huSP34.13.10 scFv AAS + SAV + RF (bispecific antibody, human IgG1, lambda, L234A L235A)
chain: EVQLVESGGGLVQPGGSLRLSCAASGFTFSTYAMNWVRQAPGKGLEWVGRIRSKYNNYATYYAASVKGRFTISRDDSKNTLYLQMNSLRTEDTAVYYCVRHGNFGHSYVSWFAYWGQGTLVTVSSGGGGSGGGGSGGGGSGGGGSQAVVTQPPSLTVSPGGTVTLTCGSSTGAVTTGHYANWVQQKPGQAPRGLIGGTNKRAPGVPARFSGSLSGGKAALTISGAQPEDEAEYYCALWYSNRWVFGGGTKLTVLEPKSSDKTHTCPPCPAPEAAGGPSVFLFPPKPKDTLMISRTPEVTCVVVDVSHEDPEVKFNWYVDGVEVHNAKTKPREEQYNSTYRVVSVLTVLHQDWLNGKEYKCKVSNKALPASIEKTISKAKGQPREPQVYTLPPSREEMTKNQVSLSCAVKGFYPSDIAVEWESNGQPENNYKTTPPVLDSDGSFFLVSKLTVDKSRWQQGNVFSCSVMHEALHNRFTQKSLSLSPGK
heavy: QMQLQESGPGLVKPSETLSLTCSVSGASISDSYWSWIRRSPGKGLEWIGYVHKSGDTNYNPSLKSRVHLSLDTSKNQVSLSLTGVTAADSGKYYCARTLHGRRIYGIVAFNEWFTYFYMDVWGTGTQVTVSSASTKGPSVFPLAPSSKSTSGGTAALGCLVKDYFPEPVTVSWNSGALTSGVHTFPAVLQSSGLYSLSSVVTVPSSSLGTQTYICNVNHKPSNTKVDKKVEPKSCDKTHTCPPCPAPEAAGGPSVFLFPPKPKDTLMISRTPEVTCVVVDVSHEDPEVKFNWYVDGVEVHNAKTKPREEQYNSTYRVVSVLTVLHQDWLNGKEYKCKVSNKALPASIEKTISKAKGQPREPQVYTLPPSREEMTKNQVSLWCLVKGFYPSDIAVEWESNGQPENNYKTTPPVLDSDGSFFLYSKLTVDKSRWQQGNVFSCSVMHEALHNHYTQKSLSLSPGK
light: not shown
[3]
  EC50: 0.095 µg/mL
[6]
  EC50: 0.062 µg/mL
[8]
  EC50: 0.045 µg/mL
[9]
  killing EC50, primary HIV-infected CD4+ cells, PBMC effector cells, isolate 657: 0.275 µg/mL
  killing EC50, primary HIV-infected CD4+ cells, PBMC effector cells, isolate 7552: 0.011 µg/mL
[12]
  EC50: 0.037 µg/mL

B3: huSP34.3.4 Fab-HF (Fab, V domains shown)
VH: EVQLVESGGGLVQPGGSLRLSCAASGFTFNTYAMNWVRQAPGKGLEWVGRIRSKYNNYATYYADSVKGRFTISRDDSKNSLYLQMNSLRTEDTAVYYCVRHGNFGHSYVSWFAYWGQGTLVTVSS
VL: QAVVTQEPSLTVSPGGTVTLTCGSSTGAVTTSHYANWVQQKPGQAPRGLIGGTSKRAPWTPARFSGSLLGGKAALTLSGAQPEDEAEYYCALWYSALWVFGGGTKLTVL
[14]
  IC50: 17.3 µg/mL
[15]
  Kd: 86 nM
[16]
  Kd: 86 nM
[17]
  IC50: 17.3 µg/mL
[18]
  IC50: > 20 µg/mL

B4: huSP34.13.8 Fab-HF (Fab, V domains shown)
VH: EVQLVESGGGLVQPGGSLRLSCAASGFTFSTYAMNWVRQAPGKGLEWVGRIRSKYNNYATYYAASVKGRFTISRDDSKNTLYLQMNSLRTEDTAVYYCVRHGNFGHSYVSWFAYWGQGTLVTVSS
VL: QAVVTQEPSLTVSPGGTVTLTCGSSTGAVTTGHYANWVQQKPGQAPRGLIGGTNKRAPGVPARFSGSLLGGKAALTISGAQPEDEAEYYCALWYSNRWVFGGGTKLTVL
[19]
  IC50: 0.14 µg/mL
[20]
  IC50: 0.25 µg/mL
[21]
  IC50: 0.36 µg/mL
[22]
  Kd: 2.49 nM

B5: huSP34.3.6 Fab-HF (Fab, V domains shown)
VH: EVQLVESGGGLVQPGGSLRLSCAASGFTFNTYAMNWVRQAPGKGLEWVGRIRSKYNNYATYYADSVKGRFTISRDDSKNSLYLQMNSLRTEDTAVYYCVRHGNFGHSYVSWFAYWGQGTLVTVSS
VL: QAVVTQPPSLTVSPGGTVTLTCGSSTGAVTTGHYANWVQQKPGQAPRGLIGGTSNRAPGVPARFSGSLSGGKAALTISGAQPEDEAEYYCALWYSARWVFGGGTKLTVL
[14]
  IC50: 4.75 µg/mL
[15]
  Kd: 19 nM
[16]
  Kd: 19 nM
[17]
  IC50: 1.03 µg/mL
[18]
  IC50: 8.48 µg/mL

B6: huSP34.13.10 Fab-HF (Fab, V domains shown)
VH: EVQLVESGGGLVQPGGSLRLSCAASGFTFSTYAMNWVRQAPGKGLEWVGRIRSKYNNYATYYAASVKGRFTISRDDSKNTLYLQMNSLRTEDTAVYYCVRHGNFGHSYVSWFAYWGQGTLVTVSS
VL: QAVVTQPPSLTVSPGGTVTLTCGSSTGAVTTGHYANWVQQKPGQAPRGLIGGTNKRAPGVPARFSGSLSGGKAALTISGAQPEDEAEYYCALWYSNRWVFGGGTKLTVL
[15]
  Kd: 1.8 nM
[16]
  Kd: 1.8 nM
[19]
  IC50: 0.16 µg/mL
[20]
  IC50: 0.25 µg/mL
[21]
  IC50: 0.35 µg/mL

B7: huSP34.4.2 Fab-HF (Fab, V domains shown)
VH: EVQLVESGGGLVQPGGSLRLSCAASGFTFSTYAMNWVRQAPGKGLEWVGRIRSKYNNYATYYAASVKGRFTISRDDSKNSLYLQMNSLRTEDTAVYYCVRHGNFGHSYVSWFAVWGQGTLVTVSS
VL: QAVVTQEPSLTVSPGGTVTLTCGSSTGAVTTSNYANWVQQKPGQAPRGLIGGTSNRAPWTPARFSGSLLGGKAALTLSGAQPEDEAEYYCALWYSNLWVFGGGTKLTVL
[17]
  IC50: > 20 µg/mL
[18]
  IC50: > 20 µg/mL
[22]
  Kd: 45.3 nM

Source: patent US20230056252A1 (Gilead, published 2023)
